Among the data in paper PMC4243058 are Kd values, retold here.

The target in this test is Fzd2 pTyr552 peptide (phosphorylated 18-mer). The experiment in a line: SPR. On the technique in general: SPR reads the build-up and loss of mass on a sensor chip optically.

Usually Kd stands for the free concentration of one partner at which half of the binding sites on the other are occupied at equilibrium, for simple one-to-one binding.

For the substance “GST-FynSH2 (SH2 domain of Fyn) (from UniProt P06241 149-246) (domain or fragment)”, the Kd was determined as 2.1 nM.
